Source: publication PMC5877399 (Biomacromolecules, 2014)
*: point of attachment. Ru(bipy)3 = tris(bipyridine)ruthenium complex attached to the Lys ε-amine via an NHS ester; Palmitoyl = CCCCCCCCCCCCCCCC(=O)*

T1: PA1-Gd(DO3A), palmitoyl-IAAAEEEEK(DO3A:Gd)-NH2 (not fully specified (residue 9); printed as palmitoyl-IAAAEEEEK(DO3A:Gd)-NH2; also: Gd complex of DO3A)
T1 peptide: Palmitoyl-IAAAEEEEK-NH2

B1: PA2-Gd(DO3A), palmitoyl-MAAAEEEEK(DO3A:Gd)-NH2 (peptide)
peptide: MAAAEEEEK
modifications: not fully specified; palmitoyl on the N-terminus; K(DO3A:Gd); C-terminal amide (NH2)

Tests used:
[1] = molecular target: the molecule itself; experiment: circular dichroism spectroscopy
[2] = molecular target: B1; experiment: fluorescence polarisation
[3] = molecular target: T1, PA1-Gd(DO3A), …; experiment: fluorescence polarisation

Binder: B1
- binding result [1]: binds

Binder: Palmitoyl-MAAAEEEEK(Ru(bipy)3)-NH2 (also: Ru(bipy)3 via NHS ester linker, Ru complex) [PA2-Ru(bipy)3, palmitoyl-MAAAEEEEK[Ru(bipy)3]-NH2]
- binding result [2]: binds

Binder: Palmitoyl-IAAAEEEEK(Ru(bipy)3)-NH2 (also: Ru(bipy)3 via NHS ester linker, Ru complex) [PA1-Ru(bipy)3, palmitoyl-IAAAEEEEK[Ru(bipy)3]-NH2]
- binding result [3]: binds
